The target in data set [1] is 1:1 RP105 N402Q–MD-1 complex.
The target of data set [2] is bovine 1:1 sRP105–MD-1 complex (building block of the 2:2 complex) (bovine). The data set can be described thus: crystal structure.
The target is the same in data set [3]. The data set can be described thus: SEC. Background: SEC sorts molecules by how far they enter the pores of the column.
Data set [4] concerns the molecule itself. Put plainly: SEC.

We go through four molecules from PMC3362203 (Nature structural & molecular biology, 2011).

Molecule 1:1 RP105 N402Q–MD-1 complex had a stoichiometry N in data set [1] of 2. For the molecule “bovine 1:1 sRP105–MD-1 complex (building block of the 2:2 complex)”, the stoichiometry N in data set [2] and in data set [3] was 2 each time.

B1: mouse 1:1 sRP105–MD-1 complex (wild type) (complex)
chain 1: TTSSDQKCIEKEVNKTYNCENLGLNEIPGTLPNSTECLEFSFNVLPTIQNTTFSRLINLTFLDLTRCQIYWIHEDTFQSQHRLDTLVLTANPLIFMAETALSGPKALKHLFFIQTGISSIDFIPLHNQKTLESLYLGSNHISSIKLPKGFPTEKLKVLDFQNNAIHYLSKEDMSSLQQATNLSLNLNGNDIAGIELGAFDSAVFQSLNFGGTQNLLVIFKGLKNSTIQSLWLGTFEDMDDEDISPAVFEGLCEMSVESINLQKHYFFNISSNTFHCFSGLQELDLTATHLSELPSGLVGLSTLKKLVLSANKFENLCQISASNFPSLTHLSIKGNTKRLELGTGCLENLENLRELDLSHDDIETSDCCNLQLRNLSHLQSLNLSYNEPLSLKTEAFKECPQLELLDLAFTRLKVKDAQSPFQNLHLLKVLNLSHSLLDISSEQLFDGLPALQHLNLQGNHFPKGNIQKTNSLQTLGRLEILVLSFCDLSSIDQHAFTSLKMMNHVDLSHNRLTSSSIEALSHLKGIYLNLASNRISIILPSLLPILSQQRTINLRQNPLDCTCSNIYFLEWYKENMQKLEDTEDTLCENPPLLRGVRLSDVTLSCS
chain 2: DHGSENGWPKHTACNSGGLEVVYQSCDPLQDFGLSIDQCSKQIQSNLNIRFGIILRQDIRKLFLDITLMAKGSSILNYSYPLCEEDQPKFSFCGRRKGEQIYYAGPVNNPGLDVPQGEYQLLLELYNENRATVACANATVTSS
As to B1, in data set [4], the “stoichiometry N” value amounted to 2.

B2: human 1:1 sRP105–MD-1 complex (complex)
chain 1: WDQMCIEKEANKTYNCENLGLSEIPDTLPNTTEFLEFSFNFLPTIHNRTFSRLMNLTFLDLTRCQINWIHEDTFQSHHQLSTLVLTGNPLIFMAETSLNGPKSLKHLFLIQTGISNLEFIPVHNLENLESLYLGSNHISSIKFPKDFPARNLKVLDFQNNAIHYISREDMRSLEQAINLSLNFNGNNVKGIELGAFDSTIFQSLNFGGTPNLSVIFNGLQNSTTQSLWLGTFEDIDDEDISSAMLKGLCEMSVESLNLQEHRFSDISSTTFQCFTQLQELDLTATHLKGLPSGMKGLNLLKKLVLSVNHFDQLCQISAANFPSLTHLYIRGNVKKLHLGVGCLEKLGNLQTLDLSHNDIEASDCCSLQLKNLSHLQTLNLSHNEPLGLQSQAFKECPQLELLDLAFTRLHINAPQSPFQNLHFLQVLNLTYCFLDTSNQHLLAGLPVLRHLNLKGNHFQDGTITKTNLLQTVGSLEVLILSSCGLLSIDQQAFHSLGKMSHVDLSHNSLTCDSIDSLSHLKGIYLNLAANSINIISPRLLPILSQQSTINLSHNPLDCTCSNIHFLTWYKENLHKLEGSEETTCANPPSLRGVKLSDVKLSCG
chain 2: GGGGKAWPTHVVCSDSGLEVLYQSCDPLQDFGFSVEKCSKQLKSNINIRFGIILREDIKELFLDLALMSQGSSVLNFSYPICEAALPKFSFCGRRKGEQIYYAGPVNNPEFTIPQGEYQVLLELYTEKRSTVACANATIMCS
For the molecule B2, the “stoichiometry N” value in data set [4] is 2.

By stoichiometry N is commonly meant the number of molecules, sites or subunits per partner or assembly.
